In test [1] the target is human CD70 (human) (UniProt P32970). The test is described as follows: FACS binding; Raji cells. A general note: In flow cytometry, cells or beads pass a laser one at a time.
Test [2] has the same target. In words: FACS binding; U266 cells.
For test [3] the target is unchanged. In words: FACS binding; CHO-CD70 cells.

Sequence of human CD70 (human) (P32970 whole entry): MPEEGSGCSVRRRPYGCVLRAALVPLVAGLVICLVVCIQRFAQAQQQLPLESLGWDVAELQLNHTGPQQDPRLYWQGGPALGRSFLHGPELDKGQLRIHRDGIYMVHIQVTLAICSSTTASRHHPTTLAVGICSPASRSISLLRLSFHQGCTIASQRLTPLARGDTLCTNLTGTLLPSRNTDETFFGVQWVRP

As usually defined, the EC50 is the concentration needed to bring the measured effect to its halfway point. The low end stands for an effect from little substance, the high end for a need for much substance. For the substance Cusatuzumab, the EC50 in test [1] is 2.16 nM; in test [2] it was 0.671 nM.

IMM40C: the EC50 was 0.501 µg/mL in test [3] and 0.0715 µg/mL in test [2].

The values are drawn from patent US20230112123A1.
